Test results reported in US20250090663A1 (published 2025).

T1: CD70 (antigen of the Carterra KD analysis) (UniProt P32970 39-193)
T1 chain: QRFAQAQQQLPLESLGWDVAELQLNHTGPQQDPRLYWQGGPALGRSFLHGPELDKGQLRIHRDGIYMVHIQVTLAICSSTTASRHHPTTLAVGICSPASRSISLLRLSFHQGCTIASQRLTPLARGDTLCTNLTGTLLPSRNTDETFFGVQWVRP

B1: H1-Fc (anti-CD70 VHH-Fc fusion polypeptide) (Fc fusion)
chain: QVQLQESGGGLVQAGGSLRLSCAAPRSIFSINAMGWYRQAPGKQRELVAAITSGGSPTYADSVKGRFTISRDNAKNTVYLQMNSLKAEDTAVYYCATGPYGLDNALDAWGQGTQVTVSS
B2: C1-Fc (anti-CD70 VHH-Fc fusion polypeptide) (Fc fusion)
chain: QVQLQESGGGLVQTGGSLRLACTASGFTFDDYAIAWFRQAPGKEREFVAAISWSGGTTHYADSVKGRFTISRDNAKNTLYLQMSSLKPEDTAVYFCAKSLRSSPSSRWFGSRGQGTQVTVSS
B3: CD70 (ligand)
chain: QRFAQAQQQLPLESLGWDVAELQLNHTGPQQDPRLYWQGGPALGRSFLHGPELDKGQLRIHRDGIYMVHIQVTLAICSSTTASRHHPTTLAVGICSPASRSISLLRLSFHQGCTIASQRLTPLARGDTLCTNLTGTLLPSRNTDETFFGVQWVRP

How the values were obtained:
Assay in all cases: SPR (Carterra); apparent Kd
[1] = biological target: T1, CD70 (antigen of the Carterra KD …)
Positive Control (27B3) = biological target: Positive Control (27B3)
Positive Control (8G1) = biological target: Positive Control (8G1)
Positive Control (1C8) = biological target: Positive Control (1C8)

| Binder | Kd [1] [nM] | Kd (Positive Control (27B3)) [nM] | Kd (Positive Control (8G1)) [nM] | Kd (Positive Control (1C8)) [nM] |
| --- | --- | --- | --- | --- |
| B1 | 2.73 |  |  |  |
| B2 | 23.4 |  |  |  |
| B3 |  | 0.634 | 2.19 | 0.652 |
